Laboratory results from publication PMC8766848, “The Structural Basis of Babesia orientalis Lactate Dehydrogenase” (Frontiers in Cellular and Infection Microbiology, 2022).

Assays:
[1] = test system: T1, CC(=O)c1ccc[n+]([C@@H]2O[C@H](COP(=O)([O-])OP(=O)(O)OC[C@H]3O[C@@H](n4cnc5c(N)ncnc54)[C@H](O)[C@@H]3O)[C@@H](O)[C@H]2O)c1; test: enzyme kinetics (Km), lactate to pyruvate, comparison enzyme; type: biochemical, Babesia microti; conditions: varied: cofactor
T1 construct: recombinant rBmLDH

[2] = molecular target: recombinant Babesia orientalis lactate dehydrogenase (Babesia orientalis); test: crystal structure; apo rBoLDH, hanging drop vapour diffusion at 20°C, 1 M lithium chloride, 0.1 M sodium acetate, 25-30% PEG 6000; space group P1, 2.67 Å
[3] = molecular target: recombinant Babesia orientalis lactate dehydrogenase (Babesia orientalis); test: native gel or EMSA; 8% blue native-PAGE of purified rBoLDH, without sodium dodecyl sulfate; ~160 kDa band

Row | Substance | Km [1] [µM] | stoichiometry N [2] | stoichiometry N [3]
1 | Babesia microti lactate dehydrogenase (BmLDH) (Babesia microti strain RI) | 880 ± 120 |  | 
2 | recombinant Babesia orientalis lactate dehydrogenase (enzyme) |  | 4 | 4
